The numbers were not newly measured in paper PMC9900175, which cites them from elsewhere.

pKd: −log10 of the molar value.

This series addresses CD200R (Homo sapiens) (UniProt Q8TD46).
Sequence of UniProt Q8TD46 (Q8TD46 25-265): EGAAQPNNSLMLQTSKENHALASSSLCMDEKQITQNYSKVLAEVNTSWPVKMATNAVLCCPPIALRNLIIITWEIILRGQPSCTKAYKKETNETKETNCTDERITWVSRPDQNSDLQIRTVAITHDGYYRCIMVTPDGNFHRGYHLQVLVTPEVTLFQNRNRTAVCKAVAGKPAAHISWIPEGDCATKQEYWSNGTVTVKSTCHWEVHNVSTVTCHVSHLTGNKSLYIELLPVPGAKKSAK

Usually pKd stands for −log10 of the Kd, conventionally taken in molar units. As to CD200 (from UniProt P41217), the pKd is 6.30.
